Results from patent publication US20060068465.
Where a chain is given by its changes, count along the chain named.

B1: yeast UBP2 (protein)
chain: MPNEDNELQKAIENHHNQLLNQDKENADRNGSVIEDLPLYGTSINQQSTPGDVDDGKHLLYPDIATNLPLKTSDRLLDDILCDTIFLNSTDPKVMQKGLQSRGILKESMLSYSTFRSSIRPNCLGSLTDQVVFQTKSEYDSISCPKYNKIHVFQAVIFNPSLAEQQISTFDDIVKIPIYHLKVSVKVRQELERLKKHVGVTQFHSLDHLHEYDRVDLSTFDSSDPNLLDYGIYVSDDTNKLILIEIFKPEFNSPEEHESFTADAIKKRYNAMCVKNESLDKSETPSQVDCFYTLFKIFKGPLTRKSKAEPTKTIDSGNLALNTHLNPEWLTSKYGFQASSEIDEETNEIFTEYVPPDMVDYVNDLETRKIRESFVRKCLQLIFWGQLSTSLLAPNSPLKNTKSVKGMSSLQTSFSTLPWFHLLGESRARILLNSNEQTHSPLDAEPHFINLSVSHYYTDRDIIRNYESLSSLDPENIGLYFDALTYIANRKGAYQLIAYCGKQDIIGQEALENALLMFKINPKECNISELNEATLLSIYKYETSNKSQVTSNHLTNLKNALRLLAKYTKSDKLKFYVDHEPYRALSQAYDTLSIDESVDEDIIKTAYSVKINDSPGLKLDCDRALYTIAISKRSLDLFNFLTEECPQFSNYYGPEKLDYQEALKLLQVNENASDETILKIFKQKWFDENVYEPDQFLILRAALTKISIERNSTLITNFLLTGTIDPNSLPPENWPTGINNIGNTCYLNSLLQYYFSIAPLRRYVLEYQKTVENFNDHLSNSGHIRRIGGREISRGEVERSIQFIYQLRNLFYAMVHTRERCVTPSKELAYLAFAPSNVEVEFEVEGNKVVDQTGVLSDSKKETTDDAFTTKIKDTSLIDLEMEDGLNGDVGTDANRKKNESNDAEVSENEDTTGLTSPTRVAKISSDQLENALEMGRQQDVTECIGNVLFQIESGSEPIRYDEDNEQYDLVKQLFYGTTKQSIVPLSATNKVRTKVERFLSLLINIGDHPKDIYDAFDSYFKDEYLTMEEYGDVIRTVAVTTFPTILQVQIQRVYYDRERLMPFKSIEPLPFKEVIYMDRYADTENPLLLAKKKETEEMKQKLKVMKNRQRELLSRDDSGLTRKDAFLESIKLLESDTIKKTPLKIEAANDVIKTLRNNVQNIDNELMKLYNDINSLEEKISHQFDDFKEYGYSLFSVFIHRGEASYGHYWIYIKDRNRNGIWRKYNDETISEVQEEEVFNFNEGNTATPYFLVYVKQGQEGDIEPLKRILK
B2: synaptic USP (synUSP), full length (protein)
chain: MAPRLQLEKAAWRWAETVRPEEVSQEHIETAYRIWLEPCIRGVCRRNCRGNPNCLVGIGEHIWLGEIDENSFHNIDDPNCERRKKNSFVGLTNLGASCYVNTFLQVWFLNLELRQALYLCPSTCSDYTKGDGIRGGKDYEPQTICEHLQYLFALLQNSNRRYIDPSGFVKALGLDTGQQQDAQESSKLFMSLLEDTLSKQKNPDVRNVVQQQFCGEYAYVTVCSQCGRESKLVSKFYELELNIQGHKQLTDCISEFLKEERLEGDNRYFCENCQSKQNATRKIRLLSLPCTLNLQLMRFVFDRQTGHKKKLNAYIGFSESLDMEPYVEHKGGSFVYELSAVLIHRGVSAYSGHYIAHVKDPQSGDWYKFNDEDIEKMEGKKLQLGIEEDLTEPSKSQTRKPKCGKGTHCSRNAYMLVYRLQTQEKNHTMVQVPAFLQELVDRDNSKFEEWCVEMAEMRRQSVDKGRAKHEEVKELYQRLPAGAEPYEFVSLEWLQKWLDESTPTKPIDNNACLCSHDKLHPDKISIMKRISEYAADIFYSRYGGGPRLTVKALCKDCVVERCRILRLKNQLNEDYKTVNNLLKATMKGSDGFWVGKSSLRSWRQLALEQLDEQDGEAEQSNGKINGSPFSKDESKEEKKEEEEELNFNEDILCPHGELSISENERRLVSQEAWSKLQQYFPKAPEFPSYKECCSQCKILEREGEENEALHKMIAKEQKTSLPNLFQDKNRPCLSNWPEDTDALYIVSHFFLDEWRKFVRKPARSTPVSSVGNAALLCPHGGLMFTFPSLTKEDSKLIALIWPSEWQMIQKLFVVDKVIKITRIEVGDVNPSQTQYISEPNLCPDCREGLLCQQQKDLREYTQATIYVHKVVDNKKVMKDSAPELNVSSSETEEDKEEAKPDGEKDPDFNQSNGGTKRQKTSQQGYVAYQKQVIRRSTRHRKVRGEKALLVSANQTLKELKIQIMHAFSVAPFDQNLSIDGKILNDDCATLGTLGVIPESVILLKADEPIADYAAMDDVMQVCMPEEGFKGTGLLGH
B3: synUSP in which Cys98 was replaced with Ala (protein)
chain: B2 chain with C98A

Target: GST-Ub52 fusion protein [GST: P08515]
Sequence (P08515 whole entry, looked up, the tested form may be a part): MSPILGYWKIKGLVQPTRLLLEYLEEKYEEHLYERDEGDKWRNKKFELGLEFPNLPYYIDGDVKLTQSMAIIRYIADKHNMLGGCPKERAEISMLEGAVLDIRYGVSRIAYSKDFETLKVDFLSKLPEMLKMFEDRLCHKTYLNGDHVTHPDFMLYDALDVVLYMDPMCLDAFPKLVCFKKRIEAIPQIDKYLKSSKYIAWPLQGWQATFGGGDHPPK

Protein	USP activity: cleavage of GST-Ub52 on co-expression in E. coli, SDS-PAGE with Coomassie staining
B1	The GST-Ub52 protein was degraded to a band of 30 kDa by the co-expression of yeast USP2
B2	the amount of the GST-Ub52 protein of 45 kDa decreased, and the proteolysis product of 30 kDa markedly increased along with it
B3	The activity of synUSP disappeared by either replacing Cys98 with Ala
